Experimental data published in patent publication US5556780A, “CDNAS encoding mouse and rat type-2 angiotensin II receptors and their expression in host cells” (The Board of Trustees for the Leland Stanford Junior …, priority 1993, dated 1996).
Numbering of substitutions follows the chain as printed. One block for each molecule: values may come before it.

Tests used:
[1] = target: T1, mouse AT2 receptor (Mus musculus, UniProt P35374); test: [125I]CGP42112A binding / displacement on membranes of COS-7 cells transfected with mouse AT2 receptor cDNA (MC5); conditions: 0.2 nM [125I]CGP42112A
T1 construct: expressed in transfected cells; host or cells: COS-7
T1 sequence (P35374 1-363): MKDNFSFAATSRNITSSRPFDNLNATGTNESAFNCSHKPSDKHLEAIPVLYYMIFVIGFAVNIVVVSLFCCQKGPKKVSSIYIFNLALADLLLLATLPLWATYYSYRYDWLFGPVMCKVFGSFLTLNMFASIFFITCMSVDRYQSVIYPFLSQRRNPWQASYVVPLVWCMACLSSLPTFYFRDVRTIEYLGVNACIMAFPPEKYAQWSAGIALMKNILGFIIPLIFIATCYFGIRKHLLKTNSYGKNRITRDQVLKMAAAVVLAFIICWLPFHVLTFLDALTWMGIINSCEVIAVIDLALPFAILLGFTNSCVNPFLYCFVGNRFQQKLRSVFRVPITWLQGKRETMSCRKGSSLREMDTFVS
Text: Materials. […] Louis, Mo.). […] Expression in COS-7 Cells and Ligand Binding Assay. […] The transfected cells were harvested and homogenized. The 100,000×g pellet of this homogenate was suspended and used as a membrane fraction.

[2] = target: T2, rat AT2 receptor (Rattus norvegicus, UniProt P35351); test: Radioligand binding / displacement of 125I-CGP42112A on membranes of pMRAT2-transfected COS-7 cells; conditions: for order of inhibition potency (competition profiles): displacement of 125I-CGP42112A
T2 construct: pMRAT2, a rat AT2 receptor full-length cDNA cloned into the expression vector pcDNA I; expressed in transfected cells; host or cells: COS-7 (transient)
T2 sequence (P35351 1-363): T1 sequence (P35374 1-363) with R18L, S40A, L88V, G352S
Method: cDNA prepared from size-fractionated (>1 kb) poly(A)^+ RNA (Sprague-Dawley whole rat fetus, 18 days postcoitum) was ligated into an expression vector pcDNAI (Invitrogen), and amplified in 900 pools of 1,000 clones. […] Sequencing of both strands of clone pMRAT2 was done by the dideoxy chain termination method with Sequenase (USB).
2 h after incubation at room temperature, bound and free ligands were separated with GF/C filters (Whatman). […] Each experiment was carried out at least twice in duplicate, and the results shown here represent one experiment.

[3] = system: mouse AT1b receptor; test: Emulsion autoradiography of 125I-[Sar1,Ile8]-Ang II binding to transfected COS-7 cells (positive control); conditions: 1 uM DuP753; 200 pM radioligand, 2 h, room temperature
Method: cDNA prepared from size-fractionated (>1 kb) poly(A)^+ RNA (Sprague-Dawley whole rat fetus, 18 days postcoitum) was ligated into an expression vector pcDNAI (Invitrogen), and amplified in 900 pools of 1,000 clones. Plasmid DNA prepared from every 8 pools by the alkali lysis method was transfected over 2-3 h using DEAE-dextran/chloroquine into COS-7 cells grown on glass chamber slides (Nunc) (Mathews, L. S. & Vale, W. W. Cell 65, 973-982 (1991)). […] Cells were then washed four times with cold 50 mM Tris-HCl, pH 7.4, fixed with 0.1% glutaraldehyde at 4 C and subjected to emulsion autoradiography (Mathews, L. S. & Vale, W. W. Cell 65, 973-982 (1991)). […] Positive pool (RF904) which gave 20 DuP753-resistant positive cells was divided into subpools and rescreened, and after three rounds of screening a single clone pMRAT2 was isolated. Sequencing of both strands of clone pMRAT2 was done by the dideoxy chain termination method with Sequenase (USB).

[4] = system: cloned AT2 receptor; test: Intracellular calcium (fura-2) in AT2-transfected COS-7 cells; type: cell-based, rat; conditions: 1 uM Ang II
Method: (§1) Intracellular IP3 levels were measured using radioreceptor assay (NEN). […] Cell fluorescence was measured with excitation at 340 nm and 380 nm. Ionomycin (10 uM) and EGTA (10 mM) were used for calibration.

[5] = system: cloned AT2 receptor; test: Intracellular IP3 levels in AT2-transfected COS-7 cells (radioreceptor assay); type: cell-based, rat; conditions: 1 uM Ang II, 15 sec, 37 C
Method: as §1

[6] = target: rat AT2 receptor (angiotensin II type 2 receptor), clone pMRAT2 (rat); test: radioligand binding with DTT, membranes of COS-7 cells transfected with pMRAT2
[7] = target: rat AT2 receptor (angiotensin II type 2 receptor), clone pMRAT2 (rat); test: radioligand saturation binding, crude membranes of S293RAT2 cells (293 cells stably transfected with pMRAT2)
[8] = target: rat AT2 receptor (angiotensin II type 2 receptor), clone pMRAT2 (rat); test: radioligand saturation binding, crude membranes of COS-7 cells transiently transfected with pMRAT2
[9] = target: mouse AT2 receptor (angiotensin II type 2 receptor), clone MC5 (mouse); test: radioligand saturation binding with Scatchard plot, membrane fraction of COS-7 cells transfected with mouse AT2 receptor cDNA
[10] = target: mouse AT1b receptor (mouse, UniProt P29755); test: emulsion autoradiography of COS-7 cells transfected with the mouse AT1b receptor clone, 200 pM radioligand
[11] = target: T3, rat AT2 receptor (angiotensin II type 2 receptor), clone pMRAT2 (rat); test: expression cloning: emulsion autoradiography of transfected COS-7 cells, 200 pM radioligand with or without DuP753
T3 chain: T1 sequence (P35374 1-363) with R18L, S40A, L88V, G352S
Method: cDNA prepared from size-fractionated (>1 kb) poly(A)^+ RNA (Sprague-Dawley whole rat fetus, 18 days postcoitum) was ligated into an expression vector pcDNAI (Invitrogen), and amplified in 900 pools of 1,000 clones. Plasmid DNA prepared from every 8 pools by the alkali lysis method was transfected over 2–3 h using DEAE-dextran/chloroquine into COS-7 cells grown on glass chamber slides (Nunc) (Mathews, L. S. & Vale, W. W. Cell 65, 973–982 (1991)). […] Cells were then washed four times with cold 50 mM Tris-HCl, pH 7.4, fixed with 0.1% glutaraldehyde at 4 C and subjected to emulsion autoradiography (Mathews, L. S. & Vale, W. W. Cell 65, 973–982 (1991)). […] Sequencing of both strands of clone pMRAT2 was done by the dideoxy chain termination method with Sequenase (USB).

competition of [125I]CGP42112A binding ([1]; at a concentration up to 10^-5 M): virtually inactive
effect in competition (displacement of 125I-CGP42112A) ([2]; 150 pM radioligand): no effect
Molecule: CCCCc1nc(Cl)c(CO)n1Cc1ccc(-c2ccccc2-c2nn[nH]n2)cc1 [DuP753]
effect on positive staining (125I-[Sar1,Ile8]-Ang II binding) [3]: completely abolished

Molecule: Cc1cc(Cn2cnc3c2C[C@@H](C(=O)O)N(C(=O)C(c2ccccc2)c2ccccc2)C3)ccc1N(C)C [PD123319]
rank order of competition of [125I]CGP42112A binding [1]: [Sar^1,Ile^8 ]-Ang II=CGP42112A≥Ang II>PD123319>Ang I
order of inhibition potency (competition profiles) ([2]; 150 pM radioligand): [Sar^1,Ile^8 ]-Ang II=CGP42112A≥Ang II>PD123319^10,15 >Ang I

Molecule: Ang I: Ang I, purchased from Sigma (DRVYIHPFHL)
rank order of competition of [125I]CGP42112A binding [1]: [Sar^1,Ile^8 ]-Ang II=CGP42112A≥Ang II>PD123319>Ang I
order of inhibition potency (competition profiles) ([2]; 150 pM radioligand): [Sar^1,Ile^8 ]-Ang II=CGP42112A≥Ang II>PD123319^10,15 >Ang I

Molecule: Ang II: Angiotensin II is an octapeptide hormone
increase of intracellular calcium [4]: failed to increase
increase of IP3 [5]: failed to increase

Molecule: Ang II: Angiotensin II is an octapeptide hormone (DRVYIHPF)
rank order of competition of [125I]CGP42112A binding [1]: [Sar^1,Ile^8 ]-Ang II=CGP42112A≥Ang II>PD123319>Ang I

increase of binding affinity by DTT ([2]; with DTT): 50-100%
Molecule: CGP42112A
rank order of competition of [125I]CGP42112A binding [1]: [Sar^1,Ile^8 ]-Ang II=CGP42112A≥Ang II>PD123319>Ang I
order of inhibition potency (competition profiles) ([2]; 150 pM radioligand): [Sar^1,Ile^8 ]-Ang II=CGP42112A≥Ang II>PD123319^10,15 >Ang I

increase of binding affinity by DTT [6]: 50 to 100%
Molecule: CGP42112A (unlabelled) (ligand)

Molecule: [Sar^1,Ile^8 ]-Ang II: a non-selective Ang II receptor antagonist
rank order of competition of [125I]CGP42112A binding [1]: [Sar^1,Ile^8 ]-Ang II=CGP42112A≥Ang II>PD123319>Ang I
order of inhibition potency (competition profiles) ([2]; 150 pM radioligand): [Sar^1,Ile^8 ]-Ang II=CGP42112A≥Ang II>PD123319^10,15 >Ang I

Kd [7]: 0.18 nM
Kd [8]: 0.17 nM
Kd [9]: 0.12 nM
Molecule: [^125 I]CGP42112A (ligand)

binding result [10]: binds
binding result [11]: binds
B1: ^125 I-[Sar^1,Ile^8]-Ang II (peptide)
peptide: GRVYIHPI
modifications: Sar at position 1, Ile at position 8, 125I label, as printed ^125 I-[Sar^1,Ile^8]-Ang II
